From the DeepSol protein solubility set

Assay: soluble on expression in E. coli; label from the status in PepcDB or PDB records

Row | Sequence | soluble on expression in E. coli
1 | MERRSVQKKELLSTPVVPIDIKAFDAGPILEAMGKTAFQARNLHRAAEIYLRMLEDDCAVILTLAGSLVSAGQGLIVHDLIRKGLVDVIVATGANIVDQDFFEALGHRHYQGDPRADDEALRRLWIDRIYDTYIDEEELRHTDYTVAEIADGLEPRPYSSREFIWQMGRYLAERGLGEKRIVRRAYEKGVPIFVTAFSDSSAGFGLVYHQVKRPEAHVTIDSVADFRELTEIKLKAGTTGLVMLGGGVPKNFAQDIVVAAEVLGHRVEMHKYAIQITVADERDGGLSGSTLSEAQSWGKVDARLSQMVFAEATLAFPLLASYVWHRAPARAKRRYAELFREKAPA | soluble
2 | MERVKSHFHNRKKVLLARIKDELKTIPSSNQMSTDEKMEELVRRRICIGEYDEQLARVCLDIEDEEKGRTEQFGNEQIQQPMTNLFTETSHQSLLSQLLTSSASQSKSEIPISMSSPMESASSKDSEPQAVISLPTLGATRAPLLSKLLSDPSTSKENGFLLRKEPVRLARAPSAIRNPNVSNYDRKRRAASPYEKSNRLSVLPSPQNQYLSHLIVDVSSPQELKRLLSVLIDHGFSRFQHIGSSDMVASSIRTGIPRAPRLDTVEYSNYEHEPETDEISRDGTPFWSTPIPPTNKELPVSPVSQLDMTNSIKSRVERVDVEVKLEPCNDEDDEFSEEVDEQTAELEEQLATEAIRTGLALFGKVSPSPKRMKSCGSSGSVCGDVVTAICEICGIGIRLNSGGSKWNFFEHVMMKHSTHKPFKCSQCPYQAVRKVRVKQHGQSQHNSEHEPVNMITPEVRKEWLDTMAKCFPNHQYGKEAKI | not soluble
3 | MERYVWARFFWQQARDKRGVPRRHVCDTARNNNRRPETGTAFTALCSTTVTPHPDDDDTVKGTCFAPACQVCTILLARAMNWNDGELGQLVQTFHWTHADIALLATALDITRSEARRLLTAWTDAAK | not soluble
4 | MESITQIYRIGYGPSSSHTIGPRRAAEMFLDRNPRATSFRVTLYGSLAATGKGHLTDAAILAVLEAKAPTEIVWKPEIFQNFHPNGMLFESFDKEGKQLDDWLIYSIGGGVLANEHFNEQ | not soluble
5 | MESKAKTTVTFHSGILTIGGTVIEVAYKDAHIFFDFGTEFRPELDLPDDHIETLINNRLVPELKDLYDPRLGYEYHGAEDKDYQHTAVFLSHAHLDHSRMINYLDPAVPLYTLKETKMILNSLNRKGDFLIPSPFEEKNFTREMIGLNKNDVIKVGEISVEIVPVDHDAYGASALLIRTPDHFITYTGDLRLHGHNREETLAFCEKAKHTELLMMEGVSISFPEREPDPAQIAVVSEEDLVQHLVRLELENPNRQITFNGYPANVERFAKIIEKSPRTVVLEANMAALLLEVFGIEVRYYYAESGKIPELNPALEIPYDTLLKDKTDYLWQVVNQFDNLQEGSLYIHSDAQPLGDFDPQYRVFLDLLAKKDITFVRLACSGHAIPEDLDKIIALIEPQVLVPIHTLKPEKLENPYGERILPERGEQIVL | soluble
6 | MESKREYDYILPGRAESYWLATVPEPSYPALKGDIRVDIAIIGGGIAGLTTAYLLKEAGFSSIAVIEAGRILRGVTGHTTAKVTSQHSLIYDRLLSKFGKRQAQQYAESNQAALEKIASIVASKKIDCDFVRKPSYVYAGSEDSTNKIQNEAQTARNLGLPASFEENLPLPFKTYGAVRFNNQAQFHPVKYLNALAEQIHEGGCHIFENTRALKIEGEEPVTITTDKGTIRAHKVVQAMHYPIHDRPGLFFQRLYQSRSYVLGVRIRDPFPDGMFINAEEPVRSLRSQSTDKGELILVSGEGHRTGEEEHEISRYQNLEKWVRSVYSVDSIDYRWSSQDAISIDHIPYIGRQTSGNDSIFLATGFKKWGMTMGTVAAMIIKDMIREKYNPWEEVYDPSRFKPVESAKTLLSQAVEATKGFVGDRILPTHKEASQIGPEEGAIVKIEGERVAAYRDRNGVLYTLNPSCRHLGCIVSWNDAEKTWDCPCHGSRYKATGEVIHSPAVYGLSEKKIRGQDKNNIHTLEHHHHHH | soluble
7 | MESPLGSDLARLVRIWRALIDHRLKPLELTQTHWVTLHNIHQLPPDQSQIQLAKAIGIEQPSLVRTLDQLEDKGLISRQTCASDRRAKRIKLTEKADALIAEMEEVIHKTRGEILAGISSEEIELLIKLIAKLEHNIMELHSHD | not soluble
8 | MESSKKMDSPGALQTNPPLKLHTDRSAGTPVFVPEQGGYKEKFVKTVEDKYKCEKCHLVLCSPKQTECGHRFCESCMAALLSSSSPKCTACQESIVKDKVFKDNCCKREILALQIYCRNESRGCAEQLTLGHLLVHLKNDCHFEELPCVRPDCKEKVLRKDLRDHVEKACKYREATCSHCKSQVPMIALQVSLLQNESVEKNKSIQSLHNQICSFEIEIERQKEMLRNNESKILHLQRVIDSQAEKLKELDKEIRPFRQNWEEADSMKSSVESLQNRVTELESVDKSAGQVARNTGLLESQLSRHDQMLSVHDIRLADMDLRFQVLETASYNGVLIWKIRDYNRRKQEAVMGKTLSLYSQPFYTGYFGYKMCARVYLNGDGMGKGTHLSLFFVIMRGEYDALLPWPFKQKVTLMLMDQGSSRRHLGDAFKPDPNSSSFKKPTGEMNIASGCPVFVAQTVLENGTYIKDDTIFIKVIVDTSDLPDP | soluble
9 | MESSSTASQSGSRREATRQKLYEAAVTLIAEQGFSATTVDEIAERAGVAKGTVYYNFASKSVLFEELLRHGVGLLTASLRQAAERTAREGRGRVDALDAMIRAGLVFIDRYPAFTQLYVAELWRTNRAWQSTLLVVRQEAVAVVEGVLREGVASGEFSEDIDVPLTAAALVGMVLVAALDWKAFQPERSLDDVHAALSRLLQGRVSGRG | not soluble
10 | METAMSKGVITITDAEFESEVLKAEQPVLVYFWASWCGPCQLMSPLINLAANTYSDRLKVVKLEIDPNPTTVKKYKVEGVPALRLVKGEQILDSTEGVISKDKLLSFLDTHLNNN | soluble
11 | METGMVTVVNSNNFDVPRIYPPSSKSTSIHLTGFPTFYSKDHEYLLPVNLWFNYLVNIRKAVDITASVRALKRYWQFLETNNYSWDNFPANDYLKPTYRFRNDDLLKAARSGEIAFSTASMYILHVIKFYEWAAHERFITFTEENKPFNYQIVHIANSGMMSHNNPRFTVRSTDLRIRKPARNEQQKLNPLSQQELLFFADCLKECSDEFIIHQLLQIQSGLRVEEACTFPFSIVEMPNPHIHRYEVEIGIHNGVHTKFNKTRKVEIPNQLMRKMYDYSVSERRLKREKKTDGVNKTLLLNNLGNPLCSNNIQQHFRRLRHHIQNKHNIVFSHRTHDLRATYGTYRLDSLLDHLPVGDALALIMGWMGHKDDKTTWKYLRYLRKEKANQNAIVMLDQILEEAML | not soluble
12 | MEVEKEFITDEAKELLSKDKLIQQAYNEVKTSICSPIWPATSKTFTINNTEKNCNGVVPIKELCYTLLEDTYNWYREKPLDILKLEKKKGGPIDVYKEFIENSELKRVGMEFETGNISSAHRSMNKLLLGLKHGEIDLAIILMPIKQLAYYLTDRVTNFEELEPYFELTEGQPFIFIGFNAEAYNSNVPLIPKGSDGMSKRSIKKWKDKVENK | soluble
13 | MEVEKYDLTLDFDIQKRTFNGTETITADAGDIVLDAVGLQINWMKVNGRDTAFTYDGQTVRAPGDSQPQKIEISFAGKVSDSLSGIYYAGRENGMITTHFEATDARRMFPCVDHPAYKAVFAITVVIDKDYDAISNMPPKRIEVSERKVVEFQDTPRMSTYLLYVGIGKFRYEYEKYRDIDLILASLKDIRSKYPLDMARKSVEFYENYFGIPYALPKMHLISVPEFGAGAMENWGAITFREIYMDIAENSAVTVKRNSANVIAHEIAHQWFGDLVTMKWWNDLWLNESFATFMSYKTMDTLFPEWSFWGDFFVSRTSGALRSDSLKNTHPIEVDVRDPDEISQIFDEISYGKGASILRMIEDYAGYEEFRKGISKYLNDHKFGNAEGSDLWTAIEDVSGKPVKRVMEYWIKNPGYPVIKLKRNGRKITMYQTRFLLNGEEEGRWPVPVNIKKKDGVERILLEDEASIEADGLIKINADSAGFYRVLYDDATFSDVMGHYRDLSPLDRIGLVDDLFAFLLSGHIDPETYRQRIRNFFDDEDHNVITAIVGQMEYLRMLTHAFDDDARAFCRSRMQFLTGKQDENLKIALGRVSRLYVMVDESYAEEMSKLFKDFDSAEPEMRSSIATAYALVTGDLKGLLEKFRSVDRDEDRVRIISAFGKLKSNTDLSTVYGMVEKTEIKKQDMISFFSSALETLPGREFIFANLDRIIRLVIRYFTGNRTASRTVEMMIPVIGLDHPDAEDIVRNIGSKNISMGLAKGIEMLAVNRKLVERIRQTAVK | soluble
14 | MEWFGIGAGTLRQGDRADFAVIDPTHLDESVDGYHEEAVPYYGGLRRMVNRNDATVVATGVGGTVVFRGGQFGGQFRLEHHHHHH | not soluble
15 | MEWILFDKDGTLIEFDRSWEKIGVRFVQSLLETFPVHNKEAALRQLGVIKESIDPKSVMGSGSLQQIIQAFNDVTGQDTTDWSKSTSQKLVDERIPEINWVEGVKEALIDLKAKGYQLGIVTSDTKKGVEQFLAHTNAISLFDLIISTEADAYEKPNPKVLSPLFEQYNVDPQKVAIVGDTANDMKTASNANLGMAIGVLTGIATKEELHEADIILNSAADILEALN | not soluble
16 | MEWKNDVLRFSGFDYGVSKIRMLNEELHSECDQLSKSNESTSLKDITEEPKDEKLESIIETAKNKESEKEENSHVFNDCEFDAMTERKIENFYFRNVEQAEKKMKHLTTLKSKWSEPWQTGEEIVAKVYLKPKNHENPWKDGTFQEKEAVEMQKNGKKHGRCIIS | not soluble
17 | MEYELLIREAEPKDAAELVAFLNRVSLETDFTSLDGDGILLTSEEMEIFLNKQASSDNQITLLAFLNGKIAGIVNITADQRKRVRHIGDLFIVIGKRYWNNGLGSLLLEEAIEWAQASGILRRLQLTVQTRNQAAVHLYQKHGFVIEGSQERGAYIEEGKFIDVYLMGKLIG | soluble
18 | MEYHSHTVVTERKVTLLEQGQASDLTDYVANEVRVALVYNGISHTVMLASPENLEEFAIGFTLSERIVSHVNEIKGVDLEFTPEGVLIQVEITQRCFMALKQLRRNMAGRTGCGLCGVAQLEEAVKPVIRVDSDARFNIDHLQFALEQVKDNQHHFKLTGATHAAMGLDLEGQIIAAYEDIGRHIALDKLIGGCSMRHAKRPVAVLLTSRASFEMVQKAASANIQILFAMSAVTSLALELAEKSNITLIGFCRNGRATLYTHGYRLLGLNRASLAKAIAAALEHHHHHH | not soluble
19 | MEYQLREIDESEKEITQQRKKNSVTTKNFDNLSNSNSQITEMTNEQGVIPLREKDLTINVGDNRNLKVEEFMTNFISNVFENKNALFLYCKYVLLFYGKELLNENNVESLNFEIIKGGITNILVKVEDNIHQNKYLIRLYGPKTSEIINREREKLISNILCDKNISKKIYVFFPNGRIEEFKDGYALSREDIKNKDFQKEIAENLRILHDIQLDDTIYKKLQALQNIQGNRSSFLWSTLWKYFNTLKEERQKKYSFNPKAYILKLIDFDMLESIITEIQELCCKKNSPVVLCHCDLLSSNIIKTEGSSISFIDFEYSCPMERAYDIANHFNEYAGFNCEWDLTPNRSEEYHFIKHYLKTDDEQLINQLIDEIQPFYVCSHIVWGLWALLQGLHSVIDFDFINYGMTRLTAAFSVKFRSKLEKN | not soluble
20 | MFASKDINDLIAIVAGLRNRESGCIWNIKQTFESLIPYMLEEVYEVIDAIERKNRTDLCDELGDLLLQVVYHATIAQEEGSFTFEDVVYAITSKMIRRHPHVFGNAEQKKRGFIEDEWERIKKTERAEQNKCYEAVNLPTNSTTSILEKIKKLQPAHQEALALQKAAATVGFNWHESHKFFAKIEEEINELKDAIKNDKTSDIEAEFGDLYFSLLNLALHLNIDSQKALKKTNTKFRNRFTYIEESLYTQSKTLANTSLKEMESLWNKAKNKK | not soluble
